Results published in the nanobody polyreactivity screen of Harvey et al. (2022).

assay: yeast display, Sf9 membrane polyspecificity reagent, FACS + sequencing; frameworks hold sequencing errors
How it was run: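 A nanobody's polyreactivity label depends on the gate it was sorted from. Yeast display cells were stained with 10% biotinylated, detergent-solubilized Sf9 membrane reagent for 1 hour at 4 °C, enriched on streptavidin microbeads and sorted by FACS. The low and high (top ~1%) gates were set on anti-HA fluorescence for expression and streptavidin fluorescence for reagent binding.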

| Sequence | polyreactivity (PSR sort gate) |
| --- | --- |
| QVQLVESGGGLVQAGGSLRLSCAASGSIFYWYAMGWYRQAPGKERELVAAISSSNDSTDYADSVKGRFTISRDNAKNTVYLQMNSLKPEDTAVYYCAARYGTIQYDYWGQGTQVTVSS | low polyreactivity |
| QVQLVESGGGLVQAGGSLRLSCAASGSIFYWYAMGWYRQAPGKERELVAAITRAGSTNYADSVKGRFTISRDNAKNTVYLQMNSLKPEDTAVYYCAVAVTSYSSKKLYYWGQGTQVTVSS | low polyreactivity |
| QVQLVESGGGLVQAGGSLRLSCAASGSIFYYAMGWYRQAPGKERELVAAITTGDGTNYADSVKGRFTISRDNAKNTVYLQMNSLKPEDTAVYYCNSLPYQVWKRYSWGQGTQVTVSS | low polyreactivity |
| QVQLVESGGGLVQAGGSLRLSCAASGSIFYYAMGWYRQAPGKERELVATITRRGGRTHYADSVKGRFTLSRDNAKNTVYLQMNSLKPEDTAVYYCAADSYSYRYYYWGQGTQVTVSS | high polyreactivity |
| QVQLVESGGGLVQAGGSLRLSCAASGSIFYYNAMGWYRQAPGKERELVATIRTSGGSTYYADSVKGRFTISRDNAKNTVYLQMNSLKPEDTAVYYCAARDLRKLYSRYPYYYWGQGTQVTVSS | high polyreactivity |
| QVQLVESGGGLVQAGGSLRLSCAASGSIFYYNAMGWYRQAPGKERELVATITSAVSTNYADSVKWRFTISRDNAKNTVYLQMNSLKPEDTAVYYCAADVVYISGYDYWGQGTQVTVSS | low polyreactivity |
| QVQLVESGGGLVQAGGSLRLSCAASGSIFYYNPMGWYRQAPGKERELVATISGRGGSTYYADSVKGRFTISRDNAKNTVYLQMNILKPEDTAVYYCNTVPSHHRHTKYDYWGQGTQVTVSS | low polyreactivity |
| QVQLVESGGGLVQAGGSLRLSCAASGSIFYYNSMGWYRKAPGKEREFVAAISARGGSTYYADSVKGRFTISRDNAKNTVYLQLNSLKPEDSAVYYCAASWGMGTYSDSTFWGGYYYWGQGTQVTVSS | low polyreactivity |
| QVQLVESGGGLVQAGGSLRLSCAASGSIFYYYAMGWDRQAPGKERELVAGITGSGGRTYYADSVKGRFTISRDNAKNTVYLQMNSLKPEDTAVYYCAATRRDSTGSLYYYWGQGTQVTVSS | high polyreactivity |
| QVQLVESGGGLVQAGGSLRLSCAASGSIFYYYAMGWYRQAPGKERELVAAIDFGGGSTYYADSVKGRFTISRDNEKNTVYLQMNSLKPEDTAVYYCAARTFKDAGTAYGSWGQGTQETVSS | high polyreactivity |
| QVQLVESGGGLVQAGGSLRLSCAASGSIFYYYAMGWYRQAPGKERELVAAISGTGGSTYYADSVKGRFSISRDNAKNTVYLQMNSLKPEDTAVYYCAASFYIERHRYNYWGQGTQVTVSS | high polyreactivity |
| QVQLVESGGGLVQAGGSLRLSCAASGSIFYYYAMGWYRQAPGKERELVAAISRSGGSTYYADSVKGRFTISRDNAKNTVYVQMNSLKRDDTAVYYCAAQSRYWTYDYWGQGTQVTVSS | high polyreactivity |
| QVQLVESGGGLVQAGGSLRLSCAASGSIFYYYAMGWYRQAPGKERELVAAITRSGNTYYADSVKGRFTISRDNAKNTVYLQMNSLKPEDTAVYYCAAEYGGGYGWGQGTQVTVSS | high polyreactivity |
| QVQLVESGGGLVQAGGSLRLSCAASGSIFYYYAMGWYRQAPGKERELVAAITRSVSRTYYADSVKGRFTISRDNAKNTVYLQMNYLKPEVTAVYYCNVVGSSETSTVYYCGQGTQVTVSS | high polyreactivity |
| QVQLVESGGGLVQAGGSLRLSCAASGSIFYYYAMGWYRQAPGKERELVARITFSGGDTYYADSVKGRFTISRDNAKNTVYLQMNSLKPEDSAVYYCAAYCSYFFAWLDSYRDDYDYWGQGTQVTVSS | low polyreactivity |
| QVQLVESGGGLVQAGGSLRLSCAASGSIFYYYAMGWYRQAPGKERELVASITRGGSTYYADSVKGRFTISRDNAKNTVYLQMNSLKPEDTAVYYCNADLGAYVPFDYWGQGTQVTVSS | high polyreactivity |
| QVQLVESGGGLVQAGGSLRLSCAASGSIFYYYAMGWYRQAPGKERELVATISSGGGSTYYADSVKGRFTISRDNAKNTVYLQMNSLKPEDTAVYYCAKRRWRSYYDSWGQGTQVTVSS | low polyreactivity |
| QVQLVESGGGLVQAGGSLRLSCAASGSIFYYYAMGWYRQAPGTERELVAAIYNGGSTYYADSVKGRFTISRDNAKNTVYLQMNSLKPEDTAVYYCNAGYSYWYRDLGYDSWGQGTQVTVSS | low polyreactivity |
| QVQLVESGGGLVQAGGSLRLSCAASGSIFYYYDMGWYRQAPGKERELVAAIRGSGGSTYYADSVKGRFTISRDNAKNTVYLQMNSLKPEDTAVYYCAAEFGDQRFYRQYVRRDHWGQGTQVTVSS | low polyreactivity |
| QVQLVESGGGLVQAGGSLRLSCAASGSIFYYYGMGWYRQAPGKESDLVARISKSVGRTYYADSVKGRFTISRDNAKNTVYLQMNSLKPEDTAVYYCAASRSFQGNRYDYWGQGTQVTVSS | high polyreactivity |
| QVQLVESGGGLVQAGGSLRLSCAASGSIFYYYSMGWYRQAPGKERELVARITSGGSTKYADSVKGRFTISRDNAKYTVYLQMNSLKPEDTAVYYCAARYQYNYWGTYGSWGQGTQVTVSS | high polyreactivity |

| Sequence | polyreactivity (PSR sort gate) |
| --- | --- |
| QVQLVESGGGLVQAGGSLRLSCAASGSIFYYYTMGWYRQAHGKESEFVATMTYSGGSTYYADSVKGRFTISRDNAKNTVYLQMNSLKPEDTAVYYCNARPRYYDWVDYWGQGTQVTVSS | low polyreactivity |
| QVQLVESGGGLVQAGGSLRLSCAASGSIFYYYVMGWYIQAPGKERELVAAISSGGGTNYADSVKGRFTISRDNAKNSVYLQMNSLNPEDTAVYYGAKASAYGLANDYDYWGQGTQVTVSS | low polyreactivity |
| QVQLVESGGGLVQAGGSLRLSCAASGSIIAGYTMGWYRQAPGKERELVAGIRRGGSTNYADSVKGRFTISRDNAKNTVYLQMNSLKPEDTAVYYCNAQRTRSYVLRTFDYWGQGTQVTVSS | high polyreactivity |
| QVQLVESGGGLVQAGGSLRLSCAASGSIIATNAMGWYRQAPGKERELVAAISRSAGRTYYADSVKGRFTISRDNAKNTVYLQMNRLKPDDTAVYYCNAVFPGVTNQMDYWGQGTQVTVSS | high polyreactivity |
| QVQLVESGGGLVQAGGSLRLSCAASGSIIDANAMGWYRQAPGKERELVAAITSGDSTYYADSVKGRFTISRDNAKNTVYLQMNSLKPEDTAVYYCAADPVWHYYRMDYWGQGTQVTVSS | low polyreactivity |
| QVQLVESGGGLVQAGGSLRLSCAASGSIIDRNAMGWYRQAPGKERELVAAITSGGSTYYADSVKGRFTISRDNAKHTDYLKLNSLKPEDTAVYYCNADTDPPVPLYYWGQGSQVTVSS | low polyreactivity |
| QVQLVESGGGLVQAGGSLRLSCAASGSIIDYYAMGWYRPAPGKERELVAAISESSDSTYYADSVKGRFTISRDNAKNTVYLQMNSLTPEDTAVYYCAADSLTPKSASDYWGQGTQVTVSS | low polyreactivity |
| QVQLVESGGGLVQAGGSLRLSCAASGSIIDYYAMGWYRQAPGKERELVAAISSSVGITYYADSVKGRFTISRDNAKNTVYLQMNSLKPEDTAVYYCAADLYGWYFYNQEYDSWGQGTQVTVSS | low polyreactivity |
| QVQLVESGGGLVQAGGSLRLSCAASGSIIFSYAMGWYRQAPGKEREFVAAITGSGGSTYYADSVKGRFTISRDNAKNTVYLQMNSLKPEDTAVYYCARPQWRDWYGYWGQGTQVTVSS | low polyreactivity |
| QVQLVESGGGLVQAGGSLRLSCAASGSIIGDNTMGWYRQAPGKERELVATIRKNGASTTYADSVKGRFTISRDNAKNTVYLQMNSLKPEDTAVYYCARDHHTKYNYWGQGTQVTVSS | low polyreactivity |
| QVQLVESGGGLVQAGGSLRLSCAASGSIIGIYAMGWYRQAPGKERELVAAISWSGGSTYYADSVKGRFTISRDNAKNTVYLQMNSLKPEDTAVYYCNAYPAYLDDYWGQGTQVTVSS | low polyreactivity |
| QVQLVESGGGLVQAGGSLRLSCAASGSIIGNYAMGWYREAPGKERELVAAISWSGGSTYYADSVKGRFTISRDNAKNTVYLQMNSLKPEDTAVYYCAAVDYYRYRSDYDYWGQGTQVTVSS | low polyreactivity |
| QVQLVESGGGLVQAGGSLRLSCAASGSIIGSYAMGWYRQAPGKERELVAAINSGGSTNYADSVKGRFTISRDNAKNTVYLQMNSLKPEDTAVYYCASRQVYKFRRYDYWGQGTQVTVSS | high polyreactivity |
| QVQLVESGGGLVQAGGSLRLSCAASGSIIGSYAMGWYRQAPGKERELVAAISKSGGSTYYADSVKGRFTISRDNAKNTVYLQMNSLKPEDTAVYYCAARAYRYAYRAYDYWGQGTQVTVSS | high polyreactivity |
| QVQLVESGGGLVQAGGSLRLSCAASGSIIHPYTMGWYRPAPGKERELVAGISESSDSTYYADSVKGRFTISRDNAKNTVYLQMNSLKPEYTAVYYCNRDHDWPLSVLEVDYWGQGTQVTVSS | low polyreactivity |
| QVQLVESGGGLVQAGGSLRLSCAASGSIIHTNTMGWYRQAPGKERELVAAISGGSTYYADSVKGRFTISRDNAKNTVYLQMNSLKPEDTAVYYCAAGWSVWYQDFDYWGQGSQVTVSS | high polyreactivity |
| QVQLVESGGGLVQAGGSLRLSCAASGSIIKYYAMGWYRQAPGKEREFVAAITASSSRTYYADSVKGRFTISRDNAKNKVYLQMNSLKPEDTAVYYCAAVGPGRRRDYWGQGTQVTVSS | high polyreactivity |
| QVQLVESGGGLVQAGGSLRLSCAASGSIILGYAMGWYRQAPGKERELVAAIRRSSAGTYYADSVKGRFTISRDNAKNTVYLQMISLKPEDTAVYYCAWYPATYRWAYYYWGQGTQVTVSS | high polyreactivity |
| QVQLVESGGGLVQAGGSLRLSCAASGSIINRYAKGWYRQAPGKERELVAAITQSGGRTYYADSVKGRFTISRDNAKNTVYLQMNSLNPEDTAVYYCNAVRWYLYDYWGQGTQVTVSS | high polyreactivity |
| QVQLVESGGGLVQAGGSLRLSCAASGSIIPGYTMGWYRQAPGKERELVAAISRRGGSTYYADSVKGRFTISRDNAKNTVYLQMNSLKPEDTAVYYCAASLWYRISKYDYWGQGTQVTVSS | high polyreactivity |
